One series deals with Osteocalcin−/− mice. The experiment in a line: Intracerebro-ventricular (ICV) infusion in Osteocalcin−/− mice, behavioral tests. The class given is in vivo, mouse. As to the method: Osteocalcin−/−, Gprc6a−/−, Osteocalcin-mCherry, and Osteocalcin foxed mice have been previously described (Ducy et al., 1996, Nature 382:448-452; Oury et al., 2011, Cell 144:796-809). Mouse genotypes were determined by PCR. For all experiments, controls were littermate female WT, Cre-expressing, or flox/flox. All mice were maintained on a pure 129-Sv genetic background except for the inducible deletion Osteocalcin model (mix background: 25% C57/BL6 and 75% 129sv). For inducible gene deletion mice, tamoxifen was prepared in corn oil and injected intraperitoneally (IP) (1 mg/20g of body weight) over one week. For osteocalcin delivery to pregnant mice, IP injections (240 ng/day) were performed as soon as a plug was present daily until delivery (E0.5-E18.5). For osteocalcin or leptin infusion in adult Osteocalcin−/− or ob/ob mice, pumps (Alzet micro-osmotic pump, Model 1002) delivering osteocalcin (300 ng/hr), leptin (50 ng/hr), or vehicle were surgically installed subcutaneously in the backs of 3-month old mice. […] Leptin and osteocalcin content in sera and tissues were determined by ELISA.
Tail suspension testing was performed as previously described (Mayorga et al., 2001, J. Pharmacology Exper. Therapeutics 298:1101-1107; Stem et al., 1985, Psychopharmacology 85:367-370). […] The parameter recorded was the number of seconds spent immobile. Mice were scored by a highly trained observer, over a 5 min period, blind to the genotype of the mice.
Anxiety and locomotor activity of mice were measured using the open field test (David et al., 2009, Neuron 62:479-493). […] Mice were monitored throughout each test session by video tracking and analyzed using Matlab software. […] The overall motor activity was quantified as the total distance travelled. The anxiety was quantified measuring the number of rearings and the time and distance spent in the center versus periphery of the open field chamber (in %).
Each mouse was allowed to explore the apparatus for 5 min. Global activity was assessed by measuring the number of entries […] (David et al, 2009, Neuron 62:479-493). […]

Series [1] can be described thus: Blood brain barrier crossing: subcutaneous pump infusion, content in blood, bone and brain parts by ELISA. The series is classed as in vivo, mouse. Conditions: Osteocalcin−/− mice, subcutaneous pumps 50 ng/hour, seven days. On the procedure:
Osteocalcin−/−, Gprc6a−/−, Osteocalcin-mCherry, and Osteocalcin foxed mice have been previously described (Ducy et al., 1996, Nature 382:448-452; Oury et al., 2011, Cell 144:796-809). Mouse genotypes were determined by PCR. For all experiments, controls were littermate female WT, Cre-expressing, or flox/flox. All mice were maintained on a pure 129-Sv genetic background except for the inducible deletion Osteocalcin model (mix background: 25% C57/BL6 and 75% 129sv). For inducible gene deletion mice, tamoxifen was prepared in corn oil and injected intraperitoneally (IP) (1 mg/20g of body weight) over one week. For osteocalcin delivery to pregnant mice, IP injections (240 ng/day) were performed as soon as a plug was present daily until delivery (E0.5-E18.5). For osteocalcin or leptin infusion in adult Osteocalcin−/− or ob/ob mice, pumps (Alzet micro-osmotic pump, Model 1002) delivering osteocalcin (300 ng/hr), leptin (50 ng/hr), or vehicle were surgically installed subcutaneously in the backs of 3-month old mice. For the postnatal rescue of cognitive functions in Osteocalcin−/− mice, osteocalcin (10 ng/hour) or vehicle were delivered intrasubventricularly (icv) as previously described (Ducy et al., 2000, Cell 100:197-207). Leptin and osteocalcin content in sera and tissues were determined by ELISA.
To understand how this behavioral phenotype develops, whether osteocalcin crosses the blood brain barrier (BBB) was tested by installing pumps that subcutaneously delivered vehicle or uncarboxylated osteocalcin (50 ng/hour) in three-month-old Osteocalcin−/− mice. The positive control for this experiment was subcutaneous infusion of leptin (50 ng/hour) in 3 month-old ob/ob mice, since leptin is known to cross the BBB (Banks et al., 1996, Peptides 17:305-311). Seven days later, osteocalcin and leptin content were measured in blood, bone, and in various parts of the brain in Osteocalcin−/− and ob/ob mice, respectively.
(In an ELISA, binding on a coated surface is turned into a signal by an enzyme label.)

From patent US20200069775A1, “BRAIN OSTEOCALCIN RECEPTOR AND COGNITIVE DISORDERS” (The Trustees of Columbia University in the City of New York, priority 2017, published 2020) come the findings set out here.

As for “osteocalcin: Recombinant osteocalcin bacterially produced, cleaved from the GST subunit; completely undercarboxylated at all three sites; full-length mouse osteocalcin (YLGASVPSPDPLEPTREQCELNPACDELSDQYGLKTAYKRIYGITI)”, the “anxiety and depression features” value in the series with Osteocalcin−/− mice (Osteocalcin−/− mice, ICV 10 ng/hour, week-long treatment) was “corrected the anxiety and depression features”. Besides, in the series on Osteocalcin−/− mice (Osteocalcin−/− mice, ICV infusion), the “leakage of centrally delivered hormone into the general circulation (osteocalcin in blood)” value was “no leakage”. In the series on Osteocalcin−/− mice (direct administration to the brains of adult Osteocalcin−/− mice), the “defects in anxiety, depression, learning, and memory” value was “rescued defects in anxiety, depression, learning, and memory”. In addition, in series [1], the “osteocalcin accumulation in parts of the brain” value was “accumulated in Osteocalcin−/− mice in the brainstem, thalamus, and hypothalamus”; the “osteocalcin concentration in brainstem, thalamus, and hypothalamus relative to that observed in serum” value was around 50%.
